Source: article PMC11286758, “The small CRL4^CSA ubiquitin ligase component DDA1 regulates transcription-coupled repair dynamics” (Nature Communications, 2024)

Molecular target: T1, CSA-DDB1 (human, UniProt Q13216 1-396; Q16531 1-1140)
T1 construct: CSA, human, full-length coding gene; pAC8-CSA-Strep II clone; DDB1, human, full-length coding gene, synthesized and codon-optimized for insect cells; also called CSA/DDB1 complex; CSA-DDB1 alone; source: Sf9, co-expressed (biGBac), purified (Nickel-chelating sepharose, Resource Q, Superdex 200)
Assay: nano-differential scanning fluorimetry; complexes at 2 µM in 20 mM HEPES pH 7.5, 150 mM NaCl, 5% glycerol, 0.5 mM TCEP; Prometheus NT.48, 350/330 nm ratio, 1 °C/min from 20 to 90 °C; compared with CSA-DDB1 alone
Details: both partners purified

T1 sequence (Q13216 whole entry, chain 1 of 2): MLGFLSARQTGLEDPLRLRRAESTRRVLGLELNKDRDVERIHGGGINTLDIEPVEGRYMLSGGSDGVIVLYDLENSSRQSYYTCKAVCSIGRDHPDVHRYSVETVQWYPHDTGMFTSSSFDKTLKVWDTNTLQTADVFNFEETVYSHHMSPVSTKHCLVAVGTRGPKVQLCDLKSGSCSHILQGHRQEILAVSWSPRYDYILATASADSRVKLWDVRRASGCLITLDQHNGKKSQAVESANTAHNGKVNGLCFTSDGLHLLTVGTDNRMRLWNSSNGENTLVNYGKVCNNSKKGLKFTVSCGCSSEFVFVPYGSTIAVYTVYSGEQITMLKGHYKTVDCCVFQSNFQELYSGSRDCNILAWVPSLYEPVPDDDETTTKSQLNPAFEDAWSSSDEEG
T1 sequence (Q16531 whole entry, chain 2 of 2): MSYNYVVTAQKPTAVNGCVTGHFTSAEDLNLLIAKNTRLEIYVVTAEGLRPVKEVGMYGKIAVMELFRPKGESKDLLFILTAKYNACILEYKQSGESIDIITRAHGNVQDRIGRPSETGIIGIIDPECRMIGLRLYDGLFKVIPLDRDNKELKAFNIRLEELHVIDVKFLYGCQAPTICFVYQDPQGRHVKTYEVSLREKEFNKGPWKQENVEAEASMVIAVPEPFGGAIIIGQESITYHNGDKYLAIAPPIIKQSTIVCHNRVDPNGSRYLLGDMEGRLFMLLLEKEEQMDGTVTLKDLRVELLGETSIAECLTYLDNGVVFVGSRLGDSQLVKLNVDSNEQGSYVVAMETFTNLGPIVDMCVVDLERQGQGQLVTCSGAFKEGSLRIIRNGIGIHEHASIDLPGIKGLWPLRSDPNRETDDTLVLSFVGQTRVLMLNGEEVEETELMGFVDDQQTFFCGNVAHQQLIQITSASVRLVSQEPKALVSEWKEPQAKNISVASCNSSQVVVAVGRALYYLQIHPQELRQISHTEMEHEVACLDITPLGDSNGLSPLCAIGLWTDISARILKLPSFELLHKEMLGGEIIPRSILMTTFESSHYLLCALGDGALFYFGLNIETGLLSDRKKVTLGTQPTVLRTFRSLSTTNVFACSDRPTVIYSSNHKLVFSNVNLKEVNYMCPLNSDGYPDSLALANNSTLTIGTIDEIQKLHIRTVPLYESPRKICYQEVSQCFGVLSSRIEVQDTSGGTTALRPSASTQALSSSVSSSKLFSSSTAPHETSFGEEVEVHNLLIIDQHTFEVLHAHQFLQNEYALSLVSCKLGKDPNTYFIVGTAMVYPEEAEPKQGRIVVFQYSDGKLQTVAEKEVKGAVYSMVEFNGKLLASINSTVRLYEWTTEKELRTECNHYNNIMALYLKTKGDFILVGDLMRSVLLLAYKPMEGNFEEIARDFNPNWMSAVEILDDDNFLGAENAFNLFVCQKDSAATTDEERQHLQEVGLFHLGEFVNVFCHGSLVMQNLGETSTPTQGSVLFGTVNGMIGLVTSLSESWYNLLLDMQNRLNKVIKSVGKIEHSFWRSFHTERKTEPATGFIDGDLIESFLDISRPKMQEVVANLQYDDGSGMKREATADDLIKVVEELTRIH

- binding result: binds
B1: DDA1^1-52 (domain or fragment)
chain: not shown
notes: DDA1, human, residues 1-52; Used as the complex CSA-DDB1-DDA1^1-52; also called DDA1 C-terminal truncation; DDA1Δ
